Data published in publication PMC5207708.

Tests used:
[1] = target: MIER2 (UniProt Q8N344); assay: co-IP; HEK293 cells transfected with the myc-tagged protein; lysis in 1% Triton X-100, 150 mM NaCl, 20 mM Tris-Cl pH 7.5, 1 mM EDTA; IP with 9E10 anti-myc overnight at 4°C; endogenous HDAC1 and HDAC2 by Western; band densitometry (HDAC:MIER ratio); also with or without 12.5 μM Ins(1,4,5,6)P4 during the IP (no substantial difference)
[2] = target: MIER3 isoform 1 (UniProt Q7Z3K6); assay: as above
Chain of UniProt Q7Z3K6 (Q7Z3K6 whole entry, canonical isoform): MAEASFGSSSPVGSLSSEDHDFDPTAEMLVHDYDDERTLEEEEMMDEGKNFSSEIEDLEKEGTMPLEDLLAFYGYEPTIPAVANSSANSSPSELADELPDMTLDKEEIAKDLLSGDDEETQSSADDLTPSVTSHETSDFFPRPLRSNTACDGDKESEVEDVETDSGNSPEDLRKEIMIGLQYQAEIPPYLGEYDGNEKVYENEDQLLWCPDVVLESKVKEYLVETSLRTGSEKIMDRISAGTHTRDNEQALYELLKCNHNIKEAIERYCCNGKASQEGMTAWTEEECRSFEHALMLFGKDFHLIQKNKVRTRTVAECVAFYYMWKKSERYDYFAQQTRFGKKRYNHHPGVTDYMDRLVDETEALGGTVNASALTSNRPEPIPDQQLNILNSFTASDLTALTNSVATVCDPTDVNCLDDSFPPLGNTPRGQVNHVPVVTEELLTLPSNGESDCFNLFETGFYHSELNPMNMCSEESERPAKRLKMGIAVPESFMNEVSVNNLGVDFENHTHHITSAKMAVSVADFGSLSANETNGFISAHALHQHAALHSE

Chain of UniProt Q8N344 (Q8N344 whole entry, canonical isoform): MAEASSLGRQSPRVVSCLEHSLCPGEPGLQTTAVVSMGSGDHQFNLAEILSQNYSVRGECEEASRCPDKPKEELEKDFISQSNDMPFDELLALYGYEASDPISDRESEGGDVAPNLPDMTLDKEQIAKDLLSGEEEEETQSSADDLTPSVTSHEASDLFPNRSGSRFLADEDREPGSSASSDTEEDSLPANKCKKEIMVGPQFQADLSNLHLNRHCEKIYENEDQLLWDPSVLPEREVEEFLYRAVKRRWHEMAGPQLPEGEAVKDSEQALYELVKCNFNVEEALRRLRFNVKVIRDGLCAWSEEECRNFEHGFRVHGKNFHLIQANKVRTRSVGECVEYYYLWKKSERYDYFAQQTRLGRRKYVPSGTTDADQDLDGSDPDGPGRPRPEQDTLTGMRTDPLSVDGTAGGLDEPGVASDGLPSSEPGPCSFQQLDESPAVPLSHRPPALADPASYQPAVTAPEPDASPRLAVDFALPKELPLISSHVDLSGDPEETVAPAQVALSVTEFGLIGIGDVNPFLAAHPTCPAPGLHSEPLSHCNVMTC

| Substance | HDAC:MIER ratio in the immunoprecipitate, percent of that in the MIER1α complex [1] [%] | HDAC:MIER ratio in the immunoprecipitate, percent of that in the MIER1α complex [2] [%] |
| --- | --- | --- |
| HDAC2 (from UniProt Q92769 1-488) (enzyme) | 20 |  |
| HDAC2 (from UniProt Q92769 1-488) |  | 9 |
| HDAC1 (from UniProt Q13547 1-482) (HEK293 cells) |  | 9 |
